Target: SP1 (recombinant, purified, Promega) (UniProt P08047 2-785)
Assay: EMSA

SP1 (recombinant, purified, Promega), sequence (P08047 2-785): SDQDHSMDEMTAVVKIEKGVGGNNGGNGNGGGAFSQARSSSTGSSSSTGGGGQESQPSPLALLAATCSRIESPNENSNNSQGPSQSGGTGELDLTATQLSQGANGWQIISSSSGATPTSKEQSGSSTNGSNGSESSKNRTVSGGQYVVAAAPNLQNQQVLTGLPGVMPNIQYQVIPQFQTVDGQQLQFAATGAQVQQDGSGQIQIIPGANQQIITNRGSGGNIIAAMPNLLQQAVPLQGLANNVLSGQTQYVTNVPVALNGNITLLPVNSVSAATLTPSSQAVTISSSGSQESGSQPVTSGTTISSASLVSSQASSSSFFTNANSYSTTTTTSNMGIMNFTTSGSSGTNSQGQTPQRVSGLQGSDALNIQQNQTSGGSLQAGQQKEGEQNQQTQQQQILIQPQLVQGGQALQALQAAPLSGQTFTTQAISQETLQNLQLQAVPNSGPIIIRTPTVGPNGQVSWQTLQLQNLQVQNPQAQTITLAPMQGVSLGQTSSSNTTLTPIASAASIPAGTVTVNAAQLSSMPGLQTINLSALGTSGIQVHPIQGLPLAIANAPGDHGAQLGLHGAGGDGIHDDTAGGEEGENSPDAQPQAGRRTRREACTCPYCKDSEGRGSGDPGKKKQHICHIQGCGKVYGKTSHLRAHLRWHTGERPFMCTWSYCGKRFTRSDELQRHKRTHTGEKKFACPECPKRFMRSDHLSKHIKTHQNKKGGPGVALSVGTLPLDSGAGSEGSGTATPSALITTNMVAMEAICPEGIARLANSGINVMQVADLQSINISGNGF

B1: Sp1 (-346) methylated (Sp1-1 M) (dsDNA)
DNA 1: TCCACCCTCCGCCCCGCGCCGTCC
DNA 2: GGACGGCGCGGGGCGGAGGGTGGA
modifications: 5-methylcytosine (printed mC): strand 1 C10,C15,C17,C20,C24; strand 2 C4,C7,C9,C14
binding result: no binding

B2: Sp1 (-346) unmethylated (Sp1-1) (dsDNA)
DNA 1: TCCACCCTCCGCCCCGCGCCGTCC
DNA 2: GGACGGCGCGGGGCGGAGGGTGGA
binding result: binds

B3: Sp1 (-268) methylated (Sp1-2 M) (dsDNA)
DNA 1: TTCTCGTCCCCGCCCCGTCCCGCC
DNA 2: GGCGGGACGGGGCGGGGACGAGAA
modifications: 5-methylcytosine (printed mC): strand 1 C5,C11,C16,C21,C24; strand 2 C3,C8,C13,C19
binding result: no binding

B4: Sp1 (-268) unmethylated (Sp1-2) (dsDNA)
DNA 1: TTCTCGTCCCCGCCCCGTCCCGCC
DNA 2: GGCGGGACGGGGCGGGGACGAGAA
binding result: binds

Source: PMC2710387
